Measured values published in patent US8349579B2, “Galectin-3 cleavage as a marker for matrix metalloproteinase activity in cancer” (Wayne State University, priority 2007, dated 2013).

How the values were obtained:
[1] = system: gelatinolytic activity (MMP) in MCF10 DCIS.com xenograft sections; settings: DQ gelatin, incubated with EDTA (2 mM in method, 20 mM in FIG. 5 legend)
Method: In situ zymography was performed on the fresh frozen DCIS xenografts as described by Mook et. al. (29). In brief, 8 micron thick cryosections were air dried, rehydrated with PBS for 5 min and overlaid with a solution of 50 μg/ml fluorescein-labeled gelatin (DQ gelatin; Molecular Probes, Eugene, Oreg.), 1% w/v low melting temperature agarose (BioWhittaker Molecular Applications, Rockland, Me.) and 5 μg/ml DAPI (Molecular Probes) in PBS in the presence or absence of 2 mM EDTA and incubated on ice for 15 min followed by incubation in a humidified chamber at 37° C. for 2 hr. Protease catalyzed hydrolysis of the heavily labeled and totally quenched DQ Gelatin relieved the intra-molecular self quenching, yielding brightly fluorescent peptide, which was visualized by using imaging microscope.

MMP-2 = biological target: T1, MMP-2 (Homo sapiens, UniProt P08253); experiment: Cleavage of recombinant galectin-3 proteins by activated MMP-2 (Western blot); assay type: biochemical; settings: purified active MMP-2, 15 min, 37° C.
T1 sequence (P08253 110-660): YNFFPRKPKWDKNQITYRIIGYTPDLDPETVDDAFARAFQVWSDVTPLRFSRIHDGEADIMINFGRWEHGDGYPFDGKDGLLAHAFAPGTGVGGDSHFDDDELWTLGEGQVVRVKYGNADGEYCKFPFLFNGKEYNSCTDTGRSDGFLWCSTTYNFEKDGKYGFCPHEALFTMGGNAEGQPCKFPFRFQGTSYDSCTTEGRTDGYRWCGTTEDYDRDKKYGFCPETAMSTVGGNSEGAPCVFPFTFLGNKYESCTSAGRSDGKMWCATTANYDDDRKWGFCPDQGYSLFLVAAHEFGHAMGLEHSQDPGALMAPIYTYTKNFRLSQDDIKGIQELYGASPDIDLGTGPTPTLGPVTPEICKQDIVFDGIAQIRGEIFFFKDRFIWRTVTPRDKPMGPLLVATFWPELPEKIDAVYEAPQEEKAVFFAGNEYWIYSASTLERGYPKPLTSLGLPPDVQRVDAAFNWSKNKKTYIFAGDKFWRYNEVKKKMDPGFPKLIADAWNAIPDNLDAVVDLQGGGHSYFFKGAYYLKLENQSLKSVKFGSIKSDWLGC

MMP-9 = MMP-9 (Homo sapiens, UniProt P14780); experiment: Cleavage of recombinant galectin-3 proteins by activated MMP-9 (Western blot); assay type: biochemical; settings: purified active MMP-9, 60 min, 37° C.
MMP-9, sequence (P14780 107-707 limits assumed): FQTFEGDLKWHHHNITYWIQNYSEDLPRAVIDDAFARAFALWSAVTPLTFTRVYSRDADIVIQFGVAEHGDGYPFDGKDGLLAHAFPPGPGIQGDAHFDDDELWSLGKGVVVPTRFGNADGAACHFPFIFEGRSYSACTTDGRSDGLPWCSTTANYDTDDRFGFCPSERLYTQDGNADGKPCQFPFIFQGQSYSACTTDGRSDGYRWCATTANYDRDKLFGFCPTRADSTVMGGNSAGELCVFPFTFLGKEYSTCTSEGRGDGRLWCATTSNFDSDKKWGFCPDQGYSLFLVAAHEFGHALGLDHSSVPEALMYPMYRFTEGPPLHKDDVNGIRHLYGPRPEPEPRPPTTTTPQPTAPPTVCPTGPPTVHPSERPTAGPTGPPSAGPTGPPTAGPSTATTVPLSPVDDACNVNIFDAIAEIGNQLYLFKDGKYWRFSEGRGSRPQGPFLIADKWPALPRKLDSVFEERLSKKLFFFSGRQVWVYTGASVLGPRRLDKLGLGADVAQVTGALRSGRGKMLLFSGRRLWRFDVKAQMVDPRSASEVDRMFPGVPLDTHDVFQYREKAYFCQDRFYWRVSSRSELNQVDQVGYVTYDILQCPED

MDA-MB-435 tumors = settings: mice bearing MDA-MB-435 tumors, injection; cited from earlier work

Molecule	gelatinolytic activity in the stroma [1]	polypeptide produced upon incubation with MMP-2 (MMP-2) [kDa]	polypeptide produced upon incubation with MMP-9 (MMP-9) [kDa]	tumor growth and metastasis (MDA-MB-435 tumors)
O=C(O)CN(CCN(CC(=O)O)CC(=O)O)CC(=O)O [EDTA]	abrogated	–	–	–
A33G: recombinant galectin-3 mutant with A33G substitution	–	~22	~22	–
Wild type galectin-3: recombinant human wild type galectin-3, isolated from a GST fusion protein	–	~22	~22	–
cleaved galectin-3 peptide containing 108-250 amino acids: cleaved galectin-3 peptide containing 108-250 amino acids, from the literature (ref. 37)	–	–	–	loss of tumor growth and metastasis
